PMC2566859 (Nucleic Acids Research, 2008)

B1: TM1768, large subunit of Thermotoga maritima Exonuclease VII (XseA homolog) (enzyme, UniProt Q9X289 1-394, looked up)
chain: MKDYTYSVTEINEYIKDLIEGDPYLTNVSVYGEISGVRPRKGHIFFSLVEENARLECVIFGGDNMGIRLQEGRMALVEGSVSVYIPHGTYRFICSNVRYLDQAGMYQIKFETTLKKLLEEGLLSRPKKTVPRFPRKIGIITSRDSAALQDVIRTARERKAPIEIYVFHTSVQGDSAREELIKALRKANEYDLDLVMIVRGGGSKEDLWVFNEEDVIREILRLRHPVVTGIGHEIDRVIADFVADVSMHTPTGAAEYVIPDASEIHEDLDSFFEKLITSLSNRFDMEERRLETLYFRLRMIGRRKLELNEFKIERVKELAAKLRKKLMDYFEHNQKKLDSLGRMLESLNPLRPLERGFVLVKKDEKIVKESTDLKRGDVVSLVFKDGTKKAQVIG
B2: TM1769, small subunit of Thermotoga maritima Exonuclease VII (XseB homolog) (natural protein, UniProt Q9X290 1-75, looked up)
chain: MNFEEMMKELEEIVNRLENEDLPLEESIKLFERGVELYRKCKEILQQNRLKIIDVMKELEGEIDASGRDQENELR

Key:
[1] = target: B2; assay: SEC
SEC = target: the molecule itself; assay: SEC

Row | stoichiometry N [1] [TM1769 per TM1768] | Binder | stoichiometry N (SEC)
1 | ~4 | B1 | –
2 | – | B2 | 4
